Source: publication PMC8285372 (2021)

T1: KRAS G12R peptide on HLA-B*07:02 (human)
T1 peptide: GARGVGKSAL

B1: TCRA11V (TCR)
alpha TRAV12-1 TRAJ8 CDR3: CAVNPPDTGFQKLVF
beta TRBV28 TRBJ2-7 CDR3: CASSLSFRQGLREQYF
B2: TCRB7R (TCR)
alpha TRAV4 TRAJ41 CDR3: CLVGDFNSNSGYALNF
beta TRBV7-2 TRBJ1-2 CDR3: CASKVYGYTF

Columns and labels:
[1] = biological target: KRAS G12V peptide on HLA-A*11:01 (human); test: mean peptide concentration for 50% NFAT activation; J^ASP90 reporter cells 1:1 with HLA-SCD K562 pulsed with titrated peptide (10 μM–1 pM), 16–20 h; full-length, on cells
[2] = biological target: T1, KRAS G12R peptide on HLA-B*07:02; test: as above

| Binder | EC50 of peptide [1] | EC50 of peptide [2] |
| --- | --- | --- |
| B1 | 0.15 nM |  |
| B2 |  | 3.38 nM |
